Results from patent publication US20200002434A1 (BIOSION, published 2020).
Residue numbers refer to the chain shown, from its start. Names and notes keep the numbering of the source.

B1: 5G9 chimera (antibody, V domains shown)
VH: QVQLQQSGAELARPGASVKMSCKTSGYTFSSYTIHWVKQRPGQGLDWIGYINPSSDYTAYNQKFRDKATLTADQSSNTAYMQLSSLASADSAVYYCARASAFSLDFWGQGTTLTVSS
VL: DIQMTQSPSSLSASLGGKVTISCKASHDIDRYIAWYQHKPGKGPRLLIHYTSTLQPGIPSRFSGSGSGRDYSFSISNLEPEDVATYYCLNYDNLLWTFGGGTKLEIT
notes: also called 5G9 chimeric; 5G9 chimeric antibody
B2: 5G9 mouse anti-ErbB2 monoclonal antibody (antibody, mouse IgG1, V domains shown)
VH: B1 VH
VL: B1 VL
notes: also called 5G91B42A3; IgG 5G9
B3: 4C9 mouse anti-ErbB2 monoclonal antibody (antibody, mouse IgG1, V domains shown)
VH: B1 VH with T24A, S30T, I34M, D56G, A59T, R65K, Q74K, N77S, F102Y, F106Y
VL: B1 VL with K18R, S22T, V83I, N90K
notes: also called 4C9G3F5; IgG 4C9
B4: 4H2 mouse anti-ErbB2 monoclonal antibody (antibody, mouse IgG1, V domains shown)
VH: QVQLQQSGAELARPGASVKMSCKASGFTFTSYTIHWVKQRPGQGLDWIGYINPSSGYTTYNQRFKDKATLTADKSSSTAYMQLSSLTSADSAVYYCARASAYSLDYWGQGTTLTVSS
VL: B1 VL with S22T, H27Q, D70N, V83I, N90K, T107K
notes: also called 4H2H2H9; IgG 4H2
B5: 4G6 mouse anti-ErbB2 monoclonal antibody (antibody, mouse IgG1, V domains shown)
VH: B4 VH with F27Y, I34M, D46E, G56A, T59N, R63K, Y80N, S84N, A89E, T112A
VL: DIQMTQSPSSLSASLGGKVTITCKASQDINKYIAWYQHKPGKGPRLLIHSTSTLYPGIPSRFSGSGSGRDYSFRITNLEPEDIATYYCLQYDNLLWTFGGGTKVGIR
notes: also called 4G6C9B8; IgG 4G6
B6: 5F12 mouse anti-ErbB2 monoclonal antibody (antibody, mouse IgG1, V domains shown)
VH: QVQLQQSGAELARPGASVKMSCKASGYTFTSYTMHWIKQRPGQGLEWIGYINPSSSYTNYNQNFKDKATLTADKSSSTANMQLNSLTSEDSAVYYCARASSYSLDYWGQGTALTVSS
VL: B5 VL with A13T, R69K, V104L
notes: also called 5F12E5A8; IgG 5F12
B7: 4C9 chimera (antibody, V domains shown)
VH: B4 VH with F27Y, I34M, R63K, T87A
VL: B1 VL with K18R, S22T, V83I, N90K
notes: also called 4C9 chimeric antibody
B8: 4H2 chimera (antibody, V domains shown)
VH: B4 VH
VL: B1 VL with S22T, H27Q, D70N, V83I, N90K, T107K
notes: also called 4H2 chimeric antibody
B9: 4G6 chimera (antibody, V domains shown)
VH: B6 VH with I37V, S56A, N63K, S101A
VL: B5 VL
notes: also called 4G6 chimeric antibody
B10: 5F12 chimera (antibody, V domains shown)
VH: B6 VH
VL: B5 VL with A13T, R69K, V104L
notes: also called 5F12 chimeric; 5F12 chimeric antibody
B11: 5F12.v7 humanized antibody (antibody, V domains shown)
VH: EVQLVQSGAEVKKPGSSVKVSCKASGYTFTSYTMHWIRQAPGQGLEWIGYINPSSSYTNYNQNFKDRATLTADKSTSTAYMELSSLRSEDTAVYYCARASSYSLDYWGQGTLVTVSS
VL: DIQMTQSPSSLSASVGDRVTITCKASQDINKYIAWYQHKPGKGPKLLIHSTSTLYPGIPSRFSGSGSGKDFTFTISSLQPEDIATYYCLQYDNLLWTFGQGTKVEIK
notes: VH.v1/VL.6, back mutations 0/Y71F
B12: 5F12.v11 humanized antibody (antibody, V domains shown)
VH: B11 VH with L70I
VL: B11 VL with F71Y
notes: VH.4/VL.v1, back mutations L69I/0
B13: 5F12.v10 humanized antibody (antibody, V domains shown)
VH: B11 VH with A68V
VL: B11 VL with F71Y
notes: VH.3/VL.v1, back mutations A67V/0
B14: 5F12.v8 humanized antibody (antibody, V domains shown)
VH: B11 VH with I37V
VL: B11 VL with F71Y
notes: VH.1/VL.v1, back mutations I37V/0
B15: 5F12.v9 humanized antibody (antibody, V domains shown)
VH: B11 VH with I48M
VL: B11 VL with F71Y
notes: VH.2/VL.v1, back mutations I48M/0

target: T1, recombinant human ErbB2 extracellular domain (ErbB2-ECD) (human, UniProt P04626 23-652); experiment: capture ELISA, recombinant ErbB2-ECD
T1 construct: extracellular domain; Coated on plates or used biotin-labeled in solution (capture ELISA); also called Human ErbB2-ECD; rhErbB2

EC50 | Molecule
0.044 nM | B1

target: T2, human ErbB2 on ErbB2-positive cells (human, UniProt P04626 23-1255); experiment: cell-based or functional assay

BT474 cell proliferation inhibition IC50 (hIgG + 5G9) | BT474 cell proliferation inhibition IC50 (hIgG + 4C9) | BT474 cell proliferation inhibition IC50 (hIgG + 4H2) | BT474 cell proliferation inhibition IC50 (hIgG + 4G6) | BT474 cell proliferation inhibition IC50 (hIgG + 5F12) | Molecule
~1.33 nM | – | – | – | – | B2
– | 0.471 nM | – | – | – | B3
– | – | ~1.17 nM | – | – | B4
– | – | – | ~1.24 nM | – | B5
– | – | – | – | 0.7 nM | B6

target: T3, recombinant Macaca mulatta ErbB2-ECD (Macaca mulatta, UniProt I0FM22 23-652); experiment: indirect ELISA, coated ErbB2-ECD 1 ug/ml
T3 construct: extracellular domain
Description: (§1) Using indirect ELISA described in Example 1, the binding activity of antibodies of this invention to recombinant ErbB2-ECD derived from different species such as mouse, rat, Macaca mulatta, Macaca fascicularis and human, was examined. Briefly. Coat 96-well ELISA plates with 1 ug/ml recombinant ErbB2-ECD of different species with 100 ul/well and incubate at 4° C. for overnight. Remove the coating solution by discarding and tapping gently on a filter paper. Add 200 ul/well blocking buffer, incubate at 37° C. for 1-2 hours. Add purified antibody of this invention and incubate at 37° C. for one hour. Wash the plate 3 times with PBST, add goat anti-mouse IgG-HRP 100 ul/well, incubate at 37° C. for one hour. Wash the plate 3 times with PBST, add 100 ul/well TMB after 15 min, add 50 ul/well 1N HCl. Read the plate with Microplate Reader at 450 nm wavelength.

binding result | Molecule
binds | B2
binds | B3
binds | B4
binds | B5
binds | B6

target: T4, recombinant mouse ErbB2-ECD (mouse, UniProt P70424 23-653); experiment: indirect ELISA, coated ErbB2-ECD 1 ug/ml
T4 construct: extracellular domain
Description: as §1

T4 sequence (P70424 23-653): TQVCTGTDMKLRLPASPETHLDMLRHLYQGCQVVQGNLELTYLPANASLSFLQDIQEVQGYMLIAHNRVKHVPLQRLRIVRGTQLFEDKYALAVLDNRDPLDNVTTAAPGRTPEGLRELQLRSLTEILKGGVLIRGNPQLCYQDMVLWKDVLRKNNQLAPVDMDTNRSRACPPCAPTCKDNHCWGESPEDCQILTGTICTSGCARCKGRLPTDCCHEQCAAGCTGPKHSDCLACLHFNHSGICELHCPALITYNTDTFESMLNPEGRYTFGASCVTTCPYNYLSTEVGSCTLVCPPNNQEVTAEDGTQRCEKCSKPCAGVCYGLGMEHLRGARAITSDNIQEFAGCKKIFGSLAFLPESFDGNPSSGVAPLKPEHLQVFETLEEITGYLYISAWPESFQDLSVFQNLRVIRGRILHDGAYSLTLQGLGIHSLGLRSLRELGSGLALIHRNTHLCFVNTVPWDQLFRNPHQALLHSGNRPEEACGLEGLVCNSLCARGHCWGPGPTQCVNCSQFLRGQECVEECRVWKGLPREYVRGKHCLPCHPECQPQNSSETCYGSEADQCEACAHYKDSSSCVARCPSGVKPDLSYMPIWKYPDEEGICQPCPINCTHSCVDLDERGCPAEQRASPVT

binding result | Molecule
no binding | B2
no binding | B3
no binding | B4
no binding | B5
no binding | B6

target: T5, recombinant rat ErbB2-ECD (rat, UniProt P06494 23-654); experiment: indirect ELISA, coated ErbB2-ECD 1 ug/ml
T5 construct: extracellular domain
Description: as §1

T5 sequence (P06494 23-654): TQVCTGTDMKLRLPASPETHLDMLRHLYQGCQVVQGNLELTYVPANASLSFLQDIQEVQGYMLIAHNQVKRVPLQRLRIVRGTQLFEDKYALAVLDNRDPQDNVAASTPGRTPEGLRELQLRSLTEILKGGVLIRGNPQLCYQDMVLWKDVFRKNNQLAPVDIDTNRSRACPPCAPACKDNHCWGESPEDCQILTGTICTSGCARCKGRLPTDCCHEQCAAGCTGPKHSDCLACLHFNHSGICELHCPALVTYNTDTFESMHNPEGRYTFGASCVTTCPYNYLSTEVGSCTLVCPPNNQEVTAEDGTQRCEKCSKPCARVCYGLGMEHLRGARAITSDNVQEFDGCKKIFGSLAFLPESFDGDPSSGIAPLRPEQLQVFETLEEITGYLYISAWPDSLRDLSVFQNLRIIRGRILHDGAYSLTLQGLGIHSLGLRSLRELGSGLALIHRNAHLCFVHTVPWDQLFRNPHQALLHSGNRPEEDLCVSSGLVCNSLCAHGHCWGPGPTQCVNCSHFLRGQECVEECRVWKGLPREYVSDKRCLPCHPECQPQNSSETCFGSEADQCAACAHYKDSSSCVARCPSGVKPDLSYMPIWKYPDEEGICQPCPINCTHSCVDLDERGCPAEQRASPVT

binding result | Molecule
no binding | B2
no binding | B3
no binding | B4
no binding | B5
no binding | B6

target: recombinant human ErbB2 extracellular domain (ErbB2-ECD) (human) (UniProt P04626); experiment: competitive ELISA vs biotin-Trastuzumab on ErbB2-ECD; control

OD450 | Molecule
2.8 OD | normal mouse IgG (antibody)
2.91 OD | normal human IgG (antibody)

target: T1, recombinant human ErbB2 extracellular …; experiment: capture ELISA, recombinant ErbB2-ECD; remark: another data set of the same source
Description: (§2) The corresponding purified IgG of five antibodies of this invention were also evaluated for their binding activity to recombinant human ErbB2 by capture ELISA. The procedure is briefly described as following: The 96-well plates were coated with 0.5 μg/ml anti-ErbB2 antibody overnight, blocked by 1% BSA in PBST at 37° C. for one hour. Add serial diluted sample of biotin-human ErbB2-ECD started with 2 μg/ml with 1:5 serial dilution. Wash the plate 3 times with PBST and add 100 ul of HRP-streptavidin (1:5000) to each well. Incubate for another 40 min at 37° C. Wash the plate 3 times with PBST and add 100 ul/well of TMB to develop at RT for 15 min followed by quenching with 50 ul 1N HCl. Read the plates at 450 nm for OD's value. Calculate the binding EC50 by using Prism software and the results are in Table 8 below
The variable domains of the heavy and light chain of the anti-ErbB2 monoclonal antibodies (Table 12, above) were cloned in-frame to human IgG1 heavy-chain and kappa light-chain constant regions, respectively.

EC50 | Molecule
0.049 nM | B1
0.114 nM | B7
0.118 nM | B8
0.02 nM | B9
0.024 nM | B10

target: T2, human ErbB2 on ErbB2-positive cells; experiment: cell-based or functional assay; remark: another data set of the same source

BT474 cell proliferation inhibition IC50 (hIgG + 5G9c) | BT474 cell proliferation inhibition IC50 (hIgG + 4H2c) | BT474 cell proliferation inhibition IC50 (hIgG + 4G6c) | Molecule
43.4 nM | – | – | B1
– | 19.3 nM | – | B8
– | – | 36.3 nM | B9

target: T1, recombinant human ErbB2 extracellular …; experiment: capture ELISA, recombinant ErbB2-ECD; remark: another data set of the same source

EC50 | Molecule
0.043 nM | B10
0.152 nM | B11
0.028 nM | B12
0.032 nM | B13
0.018 nM | B14
0.023 nM | B15

target: T1, recombinant human ErbB2 extracellular …; experiment: capture ELISA, coated antibody, biotin-human ErbB2-ECD titrated
Description: as §2

EC50 | Molecule
0.499 nM | B2
0.142 nM | B3
0.117 nM | B4
0.021 nM | B5
0.156 nM | B6

target: T2, human ErbB2 on ErbB2-positive cells; experiment: cell-based or functional assay; remark: another data set of the same source

Internalization rate in SKBR3 cells, FITC signal, 2-hour | Molecule
23.8 | B3
17.7 | B4
18.5 | B5
22.6 | B6

target: T3, recombinant Macaca mulatta ErbB2-ECD; experiment: indirect ELISA, coated ErbB2-ECD
Description: as §1
(§3) Following the same method described in Example 5, the binding activity of the chimeric antibodies of this invention was examined for binding recombinant ErbB2-ECD derived from different species such as mouse, rat Macaca mulatta, Macaca fasciculari and human.

binding result | Molecule
binds | B1
binds | B7
binds | B8
binds | B9
binds | B10

target: T4, recombinant mouse ErbB2-ECD; experiment: indirect ELISA, coated ErbB2-ECD
Description: as §1, §3

binding result | Molecule
no binding | B1
no binding | B7
no binding | B8
no binding | B9
no binding | B10

target: T5, recombinant rat ErbB2-ECD; experiment: indirect ELISA, coated ErbB2-ECD
Description: as §1, §3

binding result | Molecule
no binding | B1
no binding | B7
no binding | B8
no binding | B9
no binding | B10
